One block for each molecule: values may come before it.
Legend:
[1] = molecular target: Gal-4 AD-RAR-γ fusion protein (Gal-4 activation domain joined to RAR-γ, from pACT-RAR-γ) (yeast; human) (UniProt P13631); experiment: cell-based or functional assay
[2] = molecular target: T1, bacterially expressed glutathione-S-transferase (GST)-RAR-γ fusion protein (human) (UniProt P13631); experiment: GST pull-down: 35S-labeled N-CoR-C' on GST-RAR-γ beads, incubation 20 minutes at 20° C.; phosphoimager quantitation
T1 sequence (looked up): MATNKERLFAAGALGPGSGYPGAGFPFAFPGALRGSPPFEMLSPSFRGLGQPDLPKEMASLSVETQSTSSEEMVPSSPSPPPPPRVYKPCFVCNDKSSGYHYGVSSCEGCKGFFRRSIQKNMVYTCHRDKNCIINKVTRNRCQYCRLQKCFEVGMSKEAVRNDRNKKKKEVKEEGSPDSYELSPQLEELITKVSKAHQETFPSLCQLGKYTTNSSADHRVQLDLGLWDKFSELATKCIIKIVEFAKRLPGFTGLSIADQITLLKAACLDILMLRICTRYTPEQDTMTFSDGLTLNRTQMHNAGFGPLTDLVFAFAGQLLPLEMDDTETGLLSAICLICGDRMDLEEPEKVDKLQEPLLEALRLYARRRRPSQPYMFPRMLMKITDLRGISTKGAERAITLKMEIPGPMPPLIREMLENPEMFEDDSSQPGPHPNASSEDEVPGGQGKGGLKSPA

[3] = molecular target: T1, bacterially expressed glutathione-S-transferase (GST)-RAR-γ fusion protein (human); experiment: GST pull-down: 35S-labeled N-CoR-C' on GST-RAR-γ beads, incubation 20 minutes at 30° C.; phosphoimager quantitation
[4] = molecular target: T1, bacterially expressed glutathione-S-transferase (GST)-RAR-γ fusion protein (human); experiment: GST pull-down: 35S-labeled N-CoR-C' on GST-RAR-γ beads, incubation 20 minutes at 37° C.; phosphoimager quantitation

Units of β-galactosidase activity, yeast two-hybrid in Y190; 1 µM AGN 193109, Triplicate 1 [1]: 5.91 units | Units of β-galactosidase activity, yeast two-hybrid in Y190; 1 µM AGN 193109, Triplicate 2 [1]: 4.43 units | Units of β-galactosidase activity, yeast two-hybrid in Y190; 1 µM AGN 193109, Triplicate 3 [1]: 4.15 units | Units of β-galactosidase activity, yeast two-hybrid in Y190; 1 µM TTNPB, Triplicate 1 [1]: 2.26 units | Units of β-galactosidase activity, yeast two-hybrid in Y190; 1 µM TTNPB, Triplicate 2 [1]: 1.83 units | Units of β-galactosidase activity, yeast two-hybrid in Y190; 1 µM TTNPB, Triplicate 3 [1]: 1.96 units | Units of β-galactosidase activity, yeast two-hybrid in Y190; Control (DMSO), Triplicate 1 [1]: 2.18 units | Units of β-galactosidase activity, yeast two-hybrid in Y190; Control (DMSO), Triplicate 2 [1]: 2.12 units | Units of β-galactosidase activity, yeast two-hybrid in Y190; Control (DMSO), Triplicate 3 [1]: 1.69 units | β-Galactosidase Activity (units), yeast two-hybrid in Y190; 1 µM AGN 194310 [1]: 5.1 units | β-Galactosidase Activity (units), yeast two-hybrid in Y190; Control (DMSO) [1]: 0.82 units
Molecule: GAL-4 DBD-N-CoR fusion protein (GAL-4 DNA binding domain fused to the full length N-CoR polypeptide, from pAS-N-CoR) (from UniProt P04386 1-147; Q60974 1-2453)

fold decrease in N-CoR binding (1 µM TTNPB against vehicle alone, 20° C.) [2]: 2.6 fold | fold increase in N-CoR binding (1 µM AGN 193109 against vehicle alone, 20° C.) [2]: 1.6 fold | fold decrease in N-CoR interaction with RAR (1 µM TTNPB against vehicle alone, 30° C.) [3]: 4.5 fold | fold increase in N-CoR interaction with RAR (1 µM AGN 193109 against vehicle alone, 30° C.) [3]: 2.2 fold | fold increase in interaction between RAR and N-CoR (1 µM AGN 193109 against vehicle alone, 37° C.) [4]: 20.5 fold
B1: [35S]-radiolabeled in vitro translated N-CoR-C' (C-terminus of N-CoR, amino acids 1629-2453) (protein, UniProt Q60974 1629-2453, looked up)
chain: MQVNLRPDVTRGLSPREQPLGLPYPATRGIIDLTNMPPTILVPHAGGTSTPPMDRITYIPGTQVTFPPRPYNAASLSPGHPTHLAAAASAEREREREREKERERERERERERERERIAAAPADLYLRPGSEQPGRPGSHGYVRSPSPSVRTQETILQQRPSVFQGTNGTSVITPLDPTAQLRIMPLPSGGPSISQGLPASRYNTAADALAALVDAAASAPQMDVSKTKESKHEAARLEENLRSRSAAVSEQQQLEQKNLEVEKRSVQCVCTSSALPSGKAQPHASVVYSEAGKDKGPPPKSRYEEELRTRGKTTITAANFIDVIITRQIASDKDARERGSQSSDSSSSLSSHRYETASDAIEVISPASSPAPPQEKPQAYQPDMVKANQAENESTRQYEGPLHHYRSQQESPSPQQQPPLPPSSQSEGMGQVPRTHRLITLADHICQIITQDFARNQVPSQASTSTFQTSPSALSSTPVRTKTSSRYSPESQSQTVLHPRPGPRVSPENLVDKSRGSRPGKSPERSHIPSEPYEPISPPQGPAVHEKQDSMLLLSQRGVDPAEQRSDSRSPGSISYLPSFFTKLESTSPMVKSKKQEIFRKLNSSGGGDSDMAAAQPGTEIFNLPAVTTSGAVSSRSHSFADPASNLGLEDIIRKALMGSFDDKVEDHGVVMSHPVGIMPGSASTSVVTSSEARRDEGEPSPHAGVCKPKLINKSNSRKSKSPIPGQSYLGTERPSSVSSVHSEGDYHRQTPGWAWEDRPSSTGSTQFPYNPLTIRMLSSTPPTQIACAPSAITQAAPHQQNRIWEREPAPLLSAQYETLSDSDD
modifications: 35S-methionine radiolabel

From patent publication US6942980
